This is an account of results in publication PMC11814294, “A pathogen effector HaRxL10 hijacks the circadian clock component CHE to perturb both plant development and immunity” (Nature Communications, 2025).

Experiment [1] deals with T1, GST-His-ZTL (Arabidopsis thaliana, UniProt Q94BT6 1-609, RED-NHS 2nd Generation fluorescent label (in the MST assay only)).
T1 construct: Vector pET-42a (GST-tag); Printed molecular weight 99 kD; Called GST-His-ZTL in the pull-downs and GST-ZTL in the MST assay; also called GST-ZTL; ZEITLUPE; source: E. coli BL21 (DE3), purified (GST-beads); not shown: GST, N-terminal, kept; His, N-terminal, kept
In words: MST; 50 nM RED-NHS-labelled GST-ZTL with serially diluted His-CHE, without or with 5 uM His-HaRxL10; 50 mM Tris-HCl pH 7.4, 150 mM NaCl, 10 mM MgCl2, 0.1% Pluronic F-127, Tween-20; 25 °C; Monolith NT.115. The settings on record: both partners purified.

For experiment [2], the target named is T1, GST-His-ZTL. Put plainly: pull-down; MBP-His-CHE and GST-His-ZTL in equal amounts (about 5 ug), amylose resin, MBP column buffer (20 mM Tris-HCl pH 7.4, 0.2 M NaCl, 1 mM EDTA), 2-3 h at 4 °C; blots with anti-MBP and anti-GST. Particulars: both partners purified.

T1 sequence (Q94BT6 whole entry): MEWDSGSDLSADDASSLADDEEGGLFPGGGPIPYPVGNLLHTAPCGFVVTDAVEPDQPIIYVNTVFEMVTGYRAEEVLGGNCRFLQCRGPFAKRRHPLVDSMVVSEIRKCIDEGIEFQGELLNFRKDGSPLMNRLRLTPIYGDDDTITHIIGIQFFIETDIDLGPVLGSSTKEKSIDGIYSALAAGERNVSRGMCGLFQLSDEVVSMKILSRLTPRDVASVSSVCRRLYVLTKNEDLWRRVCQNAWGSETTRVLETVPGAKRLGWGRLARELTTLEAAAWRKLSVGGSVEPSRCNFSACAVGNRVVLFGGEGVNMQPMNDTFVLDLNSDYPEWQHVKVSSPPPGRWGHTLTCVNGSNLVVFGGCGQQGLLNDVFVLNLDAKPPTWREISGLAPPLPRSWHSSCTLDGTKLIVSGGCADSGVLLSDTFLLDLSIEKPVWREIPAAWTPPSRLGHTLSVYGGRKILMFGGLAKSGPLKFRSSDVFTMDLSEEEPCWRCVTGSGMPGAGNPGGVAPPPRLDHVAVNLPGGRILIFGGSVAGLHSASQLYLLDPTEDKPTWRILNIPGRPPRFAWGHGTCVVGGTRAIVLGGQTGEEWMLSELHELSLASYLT

B1: His-CHE (natural protein)
chain: not shown
notes: Vector pET28a (His-tag); source: E. coli BL21 (DE3), purified (Ni-NTA); not shown: His, N-terminal, kept
As for B1, the binding result in the experiment with GST-His-ZTL [1] was “binds”.

B2: MBP-His-CHE (natural protein)
chain: not shown
notes: Vector pQLink (MBP-His-tag); Printed molecular weight 70.1 kD; source: E. coli BL21 (DE3), purified (amylose resin); not shown: MBP, N-terminal, kept; His, N-terminal, kept
With B2, in the experiment with GST-His-ZTL [2], the binding result is on record as “binds”.
